Results: patent publication US20160116478A1 (ORDER MADE MEDICAL RESEARCH, published 2016)

What was measured:
[1] = molecular target: T1, partial protein of human LGR4 (amino acids 311 to 577) (human, UniProt Q9BXB1 311-577); test: Western blot of E. coli lysate expressing the partial protein
T1 construct: Run as crude E. coli culture lysate, denatured, on SDS-PAGE and Western blot; also called LGR4 partial protein; partial protein of LGR4; not shown: N-terminal Trx-, S- and His-tags from pET32b vector; C-terminal His-tag from pET32b vector
T1 sequence: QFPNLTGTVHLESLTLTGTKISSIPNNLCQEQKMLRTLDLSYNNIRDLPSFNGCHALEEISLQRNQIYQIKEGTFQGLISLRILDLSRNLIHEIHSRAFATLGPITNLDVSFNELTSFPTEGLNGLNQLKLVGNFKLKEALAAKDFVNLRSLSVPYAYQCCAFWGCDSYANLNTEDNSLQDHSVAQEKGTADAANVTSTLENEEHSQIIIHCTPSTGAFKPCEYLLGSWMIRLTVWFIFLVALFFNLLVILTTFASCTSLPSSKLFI
Procedure: (§1) After electrophoresis, the proteins were transferred onto a PVDF membrane. Skimmed milk dissolved at a concentration of 5% (w/v) in TBS-T was used to block the membrane at room temperature for 30 minutes, and the membrane was washed twice with TBS-T. Among the monoclonal antibodies obtained in Example 1. (7), Mu2C15 was diluted to 1 μg/mL with TBS-T and reacted with the membrane for 1 hour at room temperature. After washing three times with TBS-T, anti-mouse IgG polyclonal antibody-HRP label was diluted 100,000-fold with TBS-T for use as a secondary antibody. This dilution was reacted with the membrane at room temperature for 30 minutes, followed by washing three times with TBS-T. The membrane was soaked in Immobilon and then wrapped, followed by signal detection with LAS-3000 (FIG. 15b)

[2] = molecular target: T2, partial protein of human LGR5 (amino acids 319 to 563) (human, UniProt O75473 319-563); test: as above
T2 construct: Run as crude E. coli culture lysate, denatured, on SDS-PAGE and Western blot; also called LGR5 partial protein; partial protein of LGR5; not shown: N-terminal Trx-, S- and His-tags from pET32a vector; C-terminal His-tag from pET32a vector
T2 sequence: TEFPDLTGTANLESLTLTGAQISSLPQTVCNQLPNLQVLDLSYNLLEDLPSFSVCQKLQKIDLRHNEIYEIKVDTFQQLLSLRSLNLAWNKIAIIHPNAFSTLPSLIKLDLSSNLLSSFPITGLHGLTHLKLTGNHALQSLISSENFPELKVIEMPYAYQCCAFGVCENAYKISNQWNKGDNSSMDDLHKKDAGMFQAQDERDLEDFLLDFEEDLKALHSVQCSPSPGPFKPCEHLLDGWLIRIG
Procedure: as §1

- binding result [1]: no binding (tested: 1 µg/mL)
- binding result [2]: no binding (tested: 1 µg/mL)
B1: Mu2C15 antibody (monoclonal antibody produced by Mouse-Mouse hybridoma Mu2C15) (antibody, V domains shown)
VH: QVQLQQSAAELARPGASVKMSCKASGYTFTTYTMHWVKQRPGQGLEWIGYINPNNGYTEFNQKFKDKTTLTADKSSSTAYMQLSSLTSEDSAVYYCARRDYYRFSTGFAYWGQGTLVTVSA
VL: DVVMTQTPLSLPVSLGDQASISCRSSQSLVHTNGNTYLHWYLQKPGQSPKLLIYKVSNRFSGVPDRFSGSGSGTDFTLKISRVEAEDLGVYFCSQSTHVPYTFGGGTKLEIK
notes: Mouse hybridoma antibody; Used as culture supernatant or Protein G purified, and unlabeled when immobilized in the sandwich ELISA; also called clone No. Mu2C15; anti-LGR6 antibody
